Values quoted from earlier work, collected in patent US20220062372A1, “METHODS FOR TREATING DISEASE AND REDUCING DRUG-INDUCED LIVER INJURY IN PATIENT POPULATIONS” (Ten Peaks LLC, priority 2020, published 2022).

Details: background description of the marketed drug

B1: KEVZARA: IL-6 receptor antagonist (antibody, chains of the INN, looked up, V domains shown)
VH: EVQLVESGGGLVQPGRSLRLSCAASRFTFDDYAMHWVRQAPGKGLEWVSGISWNSGRIGYADSVKGRFTISRDNAENSLFLQMNGLRAEDTALYYCAKGRDSFDIWGQGTMVTVSS
VL: DIQMTQSPSSVSASVGDRVTITCRASQGISSWLAWYQQKPGKAPKLLIYGASSLESGVPSRFSGSGSGTDFTLTISSLQPEDFASYYCQQANSFPYTFGQGTKLEIK
Q: Which “hepatic adverse reactions reported in patients” value does the source give for B1 here?
A: The value was “associated with a higher incidence of transaminase elevations”.
